Assay results from paper PMC4160017, “Poly(ADP‐ribose)‐mediated interplay of XPA and PARP1 leads to reciprocal regulation of protein function”.

Molecular target: XPA (UniProt P23025 1-273)
Test: EMSA; XPA pre-incubated with short PAR (16-20-mer), no effect on binding; EMSA: 25 mM Hepes-KOH pH 8.3, 30 mM KCl, 0.4 mM MgCl2, 1 mM EDTA, 10% glycerol, 45 ug/mL BSA, 0.9 mM DTT; 30 min; temperature not stated. Poly(ADP-ribose) overlay binding (XPA, H1, BSA, PBM peptides) not listed: PAR is not DNA/RNA
Conditions: protein: recombinant; tags: His-tag; label: biotin on the 19-mer; duplex of 19-mer and 25-mer with loop on one strand

Sequence of XPA (P23025 whole entry): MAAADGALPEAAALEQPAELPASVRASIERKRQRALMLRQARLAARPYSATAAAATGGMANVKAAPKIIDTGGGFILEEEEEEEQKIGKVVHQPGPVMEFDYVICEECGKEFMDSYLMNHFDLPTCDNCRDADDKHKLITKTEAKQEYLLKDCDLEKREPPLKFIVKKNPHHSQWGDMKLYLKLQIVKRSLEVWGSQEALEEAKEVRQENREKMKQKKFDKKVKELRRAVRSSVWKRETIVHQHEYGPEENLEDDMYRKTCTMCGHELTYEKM

B1: loop-containing duplex (19-mer annealed with 25-mer) (dsDNA)
DNA 1: ACCACCCTTCGAACCACAC
DNA 2: GTGTGGTTCGCGCGCGAAGGGTGGT
Q: Does B1 bind?
A: binds
